Values belong to the binder of their own block, whether it stands above or below them.
Key:
mouse CD39 = biological target: T1, mouse CD39 (mouse, UniProt P55772 38-478, limits assumed); assay: assay not described
T1 construct: Target as named in the general statement on 5F2 specificity; also called mCD39
T1 sequence (looked up): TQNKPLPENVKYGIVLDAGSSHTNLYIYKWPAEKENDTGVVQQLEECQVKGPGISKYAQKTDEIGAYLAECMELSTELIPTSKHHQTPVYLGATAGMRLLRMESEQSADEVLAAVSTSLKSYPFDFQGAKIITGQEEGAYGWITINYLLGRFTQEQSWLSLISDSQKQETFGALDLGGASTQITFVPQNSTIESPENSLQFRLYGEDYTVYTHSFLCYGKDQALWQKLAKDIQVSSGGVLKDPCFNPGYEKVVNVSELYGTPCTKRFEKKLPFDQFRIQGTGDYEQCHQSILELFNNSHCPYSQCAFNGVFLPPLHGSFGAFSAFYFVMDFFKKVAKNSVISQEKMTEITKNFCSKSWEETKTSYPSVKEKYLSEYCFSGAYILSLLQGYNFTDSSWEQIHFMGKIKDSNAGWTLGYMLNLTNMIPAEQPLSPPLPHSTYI

human CD39 = biological target: T2, human CD39 (human, UniProt P49961 38-478, limits assumed); assay: assay not described
T2 construct: Target as named in the general statements on 5F2 and PB1-PB5 specificity; also called hCD39; ectonucleoside triphosphate diphosphohydrolase-1
T2 sequence (looked up): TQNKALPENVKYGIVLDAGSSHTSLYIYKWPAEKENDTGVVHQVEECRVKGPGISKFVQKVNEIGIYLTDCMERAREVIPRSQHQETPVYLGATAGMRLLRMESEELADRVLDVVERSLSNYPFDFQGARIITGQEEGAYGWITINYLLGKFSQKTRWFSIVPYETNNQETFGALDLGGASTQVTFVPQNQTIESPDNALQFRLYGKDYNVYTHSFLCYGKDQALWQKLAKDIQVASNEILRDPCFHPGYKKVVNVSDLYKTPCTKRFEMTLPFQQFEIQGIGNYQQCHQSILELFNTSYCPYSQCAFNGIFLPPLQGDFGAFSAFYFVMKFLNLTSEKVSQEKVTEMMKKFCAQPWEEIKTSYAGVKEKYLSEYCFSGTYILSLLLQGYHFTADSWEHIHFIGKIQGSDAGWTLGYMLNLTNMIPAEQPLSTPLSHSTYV

binding result (mouse CD39): binds | binding result (human CD39): binds
B1: murine monoclonal 5F2 (anti-CD39 antibody) (antibody, V domains shown)
VH: EVQLEESGPGLVQPSQRLSITCTISGFSLTSYGIHWVRQSPGKGLEWLGVIWSGGNTDYNAAFISRLSISKDNSKSQVFFKMNSLQVGDTATYYCARNGHGSNIPWFVYWGQGTLVTVST
VL: DIQLTQSPASLSVATGEKVTIRCITSTDVDDDMNWFQQKPGEPPNLLISEGDTLRPGVPSRFSSSGYGTDFVFTIENTLSEDVADYYCLQSDNMPLTFGGGTKLEIK
notes: also called anti-CD39 5F2 antibody; 5F2 mAb

binding result (human CD39): binds
B2: PB4 rabbit monoclonal anti-human CD39 antibody (antibody, V domains shown)
VH: QEQLVESGGGLVQPEGSLTLTCTASGFSFSSSYYMCWVRQAPGKGLEWIGCIYIGSSTTYYATWAKGRFTISKTSSTAVTLQMTGLTAADTATYFCARDQYDDSGNLWGPGTLVTVSS
VL: DVVMTQTPASVSEPVGGTVTIKCQASQSIYSGLAWYQQKPGQPPNLLIYKASNLASGVSSRFKGSRSGTEYTLTISDLECADAATYYCQNWYGISSYGRAFGGGTEVVVKG
notes: Full rabbit heavy and light chains

From patent publication US20210253731A1 (BETH ISRAEL DEACONESS MEDICAL CENTER, published 2021)
